Experimental data taken from the RNAGym collection of RNA variant scans (doi:10.1073/pnas.2313332121).
Fewer inactive variants are shown than the library holds.

B1: TPR 5TU (parent)
chain: GGAUCUUCUCGAUCUAACAAAAAAGACAAAUCUGCCACAAAGCUUGAGAGCAUCUUCGGAUGCAGAGGCGGCAGCCUUCGGUGGCGCGAUAGCGCCAACGUUCUCAACUAUGACACGCAAAACGCGUGCUCCGUUGAAUGGAGUUUAUCAUG

Variants of: B1
Test: polymerase ribozyme fitness, log enrichment relative to wild type (log ratio); higher = more active; in vitro selection for triplet polymerase activity
In short: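 PCR was used to build mutant libraries for each subunit of a heterodimeric triplet polymerase ribozyme, which were then transcribed. A single in vitro selection round, in triplicate, used a frozen incubation at −7 °C and recovered extended constructs by gel excision, streptavidin beads and RT-PCR. Fitness is the logarithm of genotype enrichment relative to wild-type enrichment, averaged over replicates with inverse-variance weights. The logarithm is base 2, and after Illumina sequencing only genotypes with ≥10 input reads and ≥1 read per output were kept.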

Variant	polymerase ribozyme fitness (log ratio)
G59A A107U G126A	-3.68
A64G G84U U151A	≤ -4.2
G65C G81U G94C C105G A115G C129U A138C	≤ -4.2
G65A C76A A122U	-4.06
A60C U61A C69G G74A U146G A150C	≤ -4.2
A60U G67A A91G A137U	≤ -4.2
G59C A60U	0.153
G58U A60C C105G U148G	≤ -4.2
G59U G80A	-0.046
A60U C131G	-3.54
U61A A98U U134G G140U U145A	≤ -4.2
U61G G83A	-1.01
G59U A106G C114U	-1.65
G59U C85G A119U G128A	-4.19
G62A C116U	-0.0465
A60C G94C A97G A98G U134C	-3.8
A60U A64C A89U C116G G133C A147C U148C	≤ -4.2
C63G G81U G92A G117C C118U G143U	≤ -4.2
G59C G94C	-0.253
G59C A73G G86U	-2.26
G65A G74C G140U A147G	≤ -4.2

Variant	polymerase ribozyme fitness (log ratio)
G59A C75U C85U U144A	-1.61
G58C A119C	-0.0646
G59U A97C	-0.238
G62A G67A C72U C75G C93G C95U A120G	≤ -4.2
G58C C87G	≤ -4.2
U61G G88A	-4.18
G62U G94A	-1.25
G65C C87G U102A	≤ -4.2
U61G G71U C87U G143A	≤ -4.2
U61A C76U U102G U109C	≤ -4.2
G59C G92U C105A C125A C149U	≤ -4.2
A60C C99G U101G	≤ -4.2
G59C C87G	≤ -4.2
A60U G86A	-2.78
G62A U82A	-0.432
A60G C96U U101G G128A	-3.75
G58U G86A C87A	≤ -4.2
C63U A122U	0.751
G59A C87U	-1.42
A60G C72U G124A	0.612
C63U C85U C95U C149U	-1.91

Variant	polymerase ribozyme fitness (log ratio)
A60U C87U	-1.36
G59U C69U G86A C95G A107U	≤ -4.2
G59C G68C C118G	-4.15
G58C A150U	1.46
G65C G74C G88A C93G U146A	≤ -4.2
G58C C95U	-0.651
G58C C85G U90A U139A G140U	≤ -4.2
G58C C96U A150G	-0.919
G62U U145G	-0.51
G58C G143A	-0.724
A60C C76U C93U	-3.48
A60G U61G C76A G124C C125G	≤ -4.2
G59A G94U C95A U104C	-2.63
U61A C85A C96A A121G	≤ -4.2
A60C U61A	-2.27
G58C C76A G83U	-2.66
U61C G67A G68C C79U A98G	≤ -4.2
A60G G67U C93G U102C	≤ -4.2
G59A A122U	0.148
G59C A73G C85A	-2.84
U61G C95G U135C	-4.17

Variant	polymerase ribozyme fitness (log ratio)
A60C A120U A137C G140U	≤ -4.2
A60C C85A G124C	-2.54
C63U C79G A91G A107G	≤ -4.2
U61A A73G C93U C125A	-3.14
G58U C105U U134A A137U U144A	≤ -4.2
C63G A98U C99U	0.639
G65A G84U	-2.89
G58C A122U A142G G143A	-4.05
G59U G68A C96U	≤ -4.2
A60C G84U	-2.22
G65A A89U G94U	-2.57
G58U A60G	0.208
G58C G126U U145G	-3.82
C63U A89G C93A	≤ -4.2
G59U A107C A121U	-3.86
G65U U82A C93U C95G	≤ -4.2
A64U C87A C95U U139A	≤ -4.2
A60C A73U	-3.54
A60C U82A G84U U102G G126U	≤ -4.2
G65C G86C	≤ -4.2
C63G U90G G94A	-3.97
